According to publication PMC10397247:
One block for each binder: values may come before it.

Assays:
[1] = target: T1, O4; assay: two-hybrid library CC0; settings: mean of both orientations;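 note: natural log of median RNA to DNA barcode read ratio; higher means stronger binding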
T1 chain: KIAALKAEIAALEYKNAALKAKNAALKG

[2] = target: T2, O5; assay: two-hybrid library CC0; settings: mean of both orientations;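 note: natural log of median RNA to DNA barcode read ratio; higher means stronger binding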
T2 chain: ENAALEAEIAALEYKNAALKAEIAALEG

[3] = target: T3, O8; assay: two-hybrid library CC0; settings: mean of both orientations;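 note: natural log of median RNA to DNA barcode read ratio; higher means stronger binding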
T3 chain: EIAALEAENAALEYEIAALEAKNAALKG

[4] = target: T4, O9; assay: two-hybrid library CC0; settings: mean of both orientations;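 note: natural log of median RNA to DNA barcode read ratio; higher means stronger binding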
T4 chain: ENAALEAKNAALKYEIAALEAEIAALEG

[5] = target: T5, O6; assay: two-hybrid library CC0; settings: mean of both orientations;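 note: natural log of median RNA to DNA barcode read ratio; higher means stronger binding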
T5 chain: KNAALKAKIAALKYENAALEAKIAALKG

[6] = target: T6, O7; assay: two-hybrid library CC0; settings: mean of both orientations;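 note: natural log of median RNA to DNA barcode read ratio; higher means stronger binding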
T6 chain: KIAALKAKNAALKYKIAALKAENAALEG

[7] = target: T7, APC9319-AA; assay: two-hybrid library CCmax; settings: mean of both orientations
T7 chain: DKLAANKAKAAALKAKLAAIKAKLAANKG

[8] = target: T8, APC8191-AA; assay: two-hybrid library CCmax; settings: mean of both orientations
T8 chain: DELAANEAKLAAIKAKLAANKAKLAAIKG

[9] = target: T9, APC4436-AA; assay: two-hybrid library CCmax; settings: mean of both orientations
T9 chain: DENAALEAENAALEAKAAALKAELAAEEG

[10] = target: T10, APC6108-AA; assay: two-hybrid library CCmax; settings: mean of both orientations
T10 chain: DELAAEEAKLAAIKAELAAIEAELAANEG

[11] = target: T11, APC9096-AA; assay: two-hybrid library CCmax; settings: mean of both orientations
T11 chain: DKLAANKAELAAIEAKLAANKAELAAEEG

[12] = target: T12, APC8910-AA; assay: two-hybrid library CCmax; settings: mean of both orientations
T12 chain: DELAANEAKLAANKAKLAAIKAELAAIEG

[13] = target: T13, APC232-AA; assay: two-hybrid library CCmax; settings: mean of both orientations
T13 chain: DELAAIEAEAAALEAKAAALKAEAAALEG

[14] = target: T14, APC2405-AA; assay: two-hybrid library CCmax; settings: mean of both orientations
T14 chain: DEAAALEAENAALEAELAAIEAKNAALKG

[15] = target: T15, APC4011-AA; assay: two-hybrid library CCmax; settings: mean of both orientations
T15 chain: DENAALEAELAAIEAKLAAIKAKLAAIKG

[16] = target: T16, APC3645-AA; assay: two-hybrid library CCmax; settings: mean of both orientations
T16 chain: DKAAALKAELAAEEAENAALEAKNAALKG

[17] = target: T17, APC7099-AA; assay: two-hybrid library CCmax; settings: mean of both orientations
T17 chain: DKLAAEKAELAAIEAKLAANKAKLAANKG

[18] = target: T18, APC5383-AA; assay: two-hybrid library CCmax; settings: mean of both orientations
T18 chain: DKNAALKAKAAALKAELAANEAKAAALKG

[19] = target: T19, APC2237-AA; assay: two-hybrid library CCmax; settings: mean of both orientations
T19 chain: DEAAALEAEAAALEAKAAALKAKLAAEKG

[20] = target: T20, APC1434-AA; assay: two-hybrid library CCmax; settings: mean of both orientations
T20 chain: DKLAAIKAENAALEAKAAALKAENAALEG

[21] = target: T21, APC4264-AA; assay: two-hybrid library CCmax; settings: mean of both orientations
T21 chain: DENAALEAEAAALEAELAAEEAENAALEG

[22] = target: T22, APC1015-AA; assay: two-hybrid library CCmax
T22 chain: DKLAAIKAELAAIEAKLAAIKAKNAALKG

[23] = target: T23, 4H855-bH; assay: two-hybrid library CCNG1
T23 chain: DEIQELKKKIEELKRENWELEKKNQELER

[24] = target: T24, 4H3855-bH; assay: two-hybrid library CCNG1
T24 chain: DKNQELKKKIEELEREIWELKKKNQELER

[25] = target: T25, 4H3354-bH; assay: two-hybrid library CCNG1
T25 chain: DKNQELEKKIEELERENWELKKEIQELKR

[26] = target: T26, 4H72-bH; assay: two-hybrid library CCNG1
T26 chain: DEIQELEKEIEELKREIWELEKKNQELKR

[27] = target: T27, 4H797-bH; assay: two-hybrid library CCNG1
T27 chain: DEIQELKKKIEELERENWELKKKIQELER

[28] = target: T28, 4H683-bH; assay: two-hybrid library CCNG1
T28 chain: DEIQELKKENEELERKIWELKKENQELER

[29] = target: T29, 4H967-bH; assay: two-hybrid library CCNG1
T29 chain: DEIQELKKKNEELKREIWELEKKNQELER

[30] = target: T30, 4H575-bH; assay: two-hybrid library CCNG1
T30 chain: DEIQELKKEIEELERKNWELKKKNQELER

[31] = target: T31, 4H568-bH; assay: two-hybrid library CCNG1
T31 chain: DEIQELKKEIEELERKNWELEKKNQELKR

[32] = target: T32, 4H3112-bH; assay: two-hybrid library CCNG1
T32 chain: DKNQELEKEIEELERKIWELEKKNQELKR

[33] = target: T33, 4H4073-bH; assay: two-hybrid library CCNG1
T33 chain: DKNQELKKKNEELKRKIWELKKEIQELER

[34] = target: T34, 4H908-bH; assay: two-hybrid library CCNG1
T34 chain: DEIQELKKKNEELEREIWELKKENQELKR

[35] = target: T35, 4H319-bA; assay: two-hybrid library CCNG1
T35 chain: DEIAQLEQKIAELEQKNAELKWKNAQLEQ

[36] = target: T36, 4H346-bH; assay: two-hybrid library CCNG1
T36 chain: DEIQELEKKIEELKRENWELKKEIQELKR

[37] = target: T37, 4H953-bH; assay: two-hybrid library CCNG1
T37 chain: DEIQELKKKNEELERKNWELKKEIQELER

[38] = target: T38, 4H331-bH; assay: two-hybrid library CCNG1
T38 chain: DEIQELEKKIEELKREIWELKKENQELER

[39] = target: T39, 4H883-bH; assay: two-hybrid library CCNG1
T39 chain: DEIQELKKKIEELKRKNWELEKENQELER

[40] = target: T40, 4H454-bH; assay: two-hybrid library CCNG1
T40 chain: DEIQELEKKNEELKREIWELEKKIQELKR

[41] = target: T41, 4H3926-bH; assay: two-hybrid library CCNG1
T41 chain: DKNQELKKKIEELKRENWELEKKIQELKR

[42] = target: T42, 4H607-bH; assay: two-hybrid library CCNG1
T42 chain: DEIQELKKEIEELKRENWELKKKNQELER

[43] = target: T43, 4H3427-bH; assay: two-hybrid library CCNG1
T43 chain: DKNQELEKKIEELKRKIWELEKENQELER

[44] = target: T44, 4H457-bH; assay: two-hybrid library CCNG1
T44 chain: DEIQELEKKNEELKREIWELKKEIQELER

[45] = target: T45, 4H3782-bH; assay: two-hybrid library CCNG1
T45 chain: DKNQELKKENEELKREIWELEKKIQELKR

[46] = target: T46, 4H3185-bH; assay: two-hybrid library CCNG1
T46 chain: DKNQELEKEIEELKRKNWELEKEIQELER

[47] = target: T47, 4H4001-bH; assay: two-hybrid library CCNG1
T47 chain: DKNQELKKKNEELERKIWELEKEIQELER

[48] = target: T48, 4H338-bH; assay: two-hybrid library CCNG1
T48 chain: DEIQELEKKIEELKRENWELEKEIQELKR

[49] = target: T49, 4H717-bH; assay: two-hybrid library CCNG1
T49 chain: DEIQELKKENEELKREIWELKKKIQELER

[50] = target: T50, 4H687-bH; assay: two-hybrid library CCNG1
T50 chain: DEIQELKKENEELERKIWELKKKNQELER

[51] = target: T51, 4H780-bH; assay: two-hybrid library CCNG1
T51 chain: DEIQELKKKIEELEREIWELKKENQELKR

[52] = target: T52, 4H968-bH; assay: two-hybrid library CCNG1
T52 chain: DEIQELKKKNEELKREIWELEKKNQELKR

[53] = target: T53, 4H918-bH; assay: two-hybrid library CCNG1
T53 chain: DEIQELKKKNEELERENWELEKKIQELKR

[54] = target: T54, O6; assay: two-hybrid library CCNG1
T54 chain: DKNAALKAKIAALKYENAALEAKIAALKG

[55] = target: T55, O8; assay: two-hybrid library CCNG1
T55 chain: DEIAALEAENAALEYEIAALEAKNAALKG

[56] = target: T56, O7; assay: two-hybrid library CCNG1
T56 chain: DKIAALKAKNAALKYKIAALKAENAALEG

[57] = target: T57, O3; assay: two-hybrid library CCNG1
T57 chain: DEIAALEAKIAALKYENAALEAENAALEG

[58] = target: T58, O5; assay: two-hybrid library CCNG1
T58 chain: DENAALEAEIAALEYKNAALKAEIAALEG

[59] = target: T59, O9; assay: two-hybrid library CCNG1
T59 chain: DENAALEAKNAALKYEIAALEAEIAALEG

[60] = target: T60, O4; assay: two-hybrid library CCNG1
T60 chain: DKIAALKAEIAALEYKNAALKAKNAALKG

Binder: KIAALKAEIAALEYKNAALKAKNAALKG [O4]
- interaction score [1]: -2.65
- interaction score [2]: -2.68
- interaction score [3]: -2.63
- interaction score [4]: -2.71
- interaction score [5]: -2.42
- interaction score [6]: -2.75

Binder: DEIAALEAKIAALKYENAALEAENAALEG [O3]
- interaction score [54]: -2.73
- interaction score [55]: -2.29
- interaction score [56]: -2.58
- interaction score [57]: -2.29
- interaction score [58]: -2
- interaction score [59]: -2.28
- interaction score [60]: 2.05

The next lines start with the values.

- interaction score [7]: -1.82
- interaction score [8]: -1.8
- interaction score [9]: -1.14
- interaction score [10]: 0.792
- interaction score [11]: -1.67
- interaction score [12]: -1.34
- interaction score [13]: 0.0398
- interaction score [14]: -1.26
- interaction score [15]: 1.66
- interaction score [16]: -1.79
- interaction score [17]: -2.02
- interaction score [18]: -1.69
- interaction score [19]: -0.0287
- interaction score [20]: -1.58
- interaction score [21]: -1.82
- interaction score [22]: -0.544
Binder: DKLAAIKAELAAIEAKLAAIKAKNAALKG [APC1015-AA]

- interaction score [23]: -2.78
- interaction score [24]: 0.754
- interaction score [25]: 0.156
- interaction score [26]: 0.428
- interaction score [27]: -0.951
- interaction score [28]: 0.204
- interaction score [29]: 1.34
- interaction score [30]: -0.872
- interaction score [31]: -0.443
- interaction score [32]: 1.18
- interaction score [33]: 1.57
- interaction score [34]: -0.43
- interaction score [35]: -3.07
- interaction score [36]: 0.584
- interaction score [37]: -0.641
- interaction score [38]: 0.991
- interaction score [39]: 0.871
- interaction score [40]: 0.624
- interaction score [41]: 0.42
- interaction score [42]: 0.768
- interaction score [43]: 1.07
- interaction score [44]: -1.29
- interaction score [45]: 0.0549
- interaction score [46]: -0.575
- interaction score [47]: 0.971
- interaction score [48]: 1.72
- interaction score [49]: -0.259
- interaction score [50]: -0.713
- interaction score [51]: 0.704
- interaction score [52]: 1.05
- interaction score [53]: 0.72
Binder: DKNQELEKEIEELERKIWELEKKNQELKR [4H3112-bH]
